# B1: 89Zr-DFO-H4H14639D (bispecific antibody, V domains shown)
# VH 1: EVQLVESGGGLVQPGTSLRLSCAASGFTFDDYAMHWVRQAPGKGLEWVSGITWNSYNIDYADSVKGRFTISRDNAKNSLYLQMNSLRAEDTALYYCAKDDDYSNYVYFDYWGQGTLVTVSS
# VH 2: EVQLVESGGGLVQPGGSLRLSCAASGFIVTTNYMTWLRQAPGKGLEWVSLIYSSGHTYYADSVKGRFTISRHNSKNTLYLQMDSLRAEDTAVYYCASAFAADVFDIWGQGTMVTVSS
# VL: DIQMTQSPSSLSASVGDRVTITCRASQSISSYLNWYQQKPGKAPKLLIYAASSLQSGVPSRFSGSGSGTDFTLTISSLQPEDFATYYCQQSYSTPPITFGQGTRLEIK
# modifications: p-SCN-Bn-DFO on primary amines (sites not given), chelating 89Zr
# notes: also called DFO-Ab radioimmunoconjugate; 89Zr-DFO-MET x MET bispecific antibody conjugate
# B2: DFO-H4H14639D immunoconjugate (DAR 1.26) (bispecific antibody, V domains shown)
# VH 1: B1 VH 1
# VH 2: B1 VH 2
# VL: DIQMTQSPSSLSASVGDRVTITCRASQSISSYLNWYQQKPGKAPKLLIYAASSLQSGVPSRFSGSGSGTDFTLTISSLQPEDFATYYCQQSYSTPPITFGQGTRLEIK
# modifications: p-SCN-Bn-DFO on primary amines, sites not stated; average DAR 1.26 per antibody
# notes: also called DFO-Ab immunoconjugate; DFO-MET x MET immunoconjugate
# Tests used:
# [1] = molecular target: T1, human MET on EBC-1, NCI-H441 and NCI-H358 cells (human, UniProt P08581 25-1390); assay: saturation radioligand binding (antibody binding capacity) assay with 89Zr-DFO-H4H14639D on NCI-H441 cells, 4 C, 45 min, gamma counting; x axis is total antibody dosed, not free
# T1 construct: whole, on cells; also called Met receptor; c-Met
# Description: (§1) This wash process was repeated two more times, before resuspending cells in 200 μL of cold buffer (10% FBS in PBS, v/v). Of the 200 μL, 180 μL from each well was collected and dispensed into flip-cap tubes, representing the cell-bound antibody. […] A calibration curve was generated from the total antibody dosed samples using counts detected vs total antibody dosed per well, T, based on the dilution series starting from the initial antibody concentration (divided by five because of sampling). The calibration curve was used to convert the bound fraction counts (multiplied by […] because of sampling) to mass (or concentration) of bound antibody, B.
# (§2) The radioligand internalization was also assayed at the highest dosed concentration at 4° C. for the 45 minutes. […] Activity of cell pellets, stripping supernatants, and wash supernatants were measured using a gamma counter. The fraction internalized, I, was calculated as the ratio of activity of the cell pellet over sum of the total activity of the cell pellet, stripping supernatant and wash supernatants.
# (§3) Because there are multiple binding formats for H4H14639D, the data set was fit by the Hill-Langmuir equation (equation 3). The ABC was then calculated using equation 2. Non-specific binding was determined to be a negligible component for all runs was not considered as part of the analysis. […]
# [2] = molecular target: T1, human MET on EBC-1, NCI-H441 and …; assay: saturation radioligand binding (antibody binding capacity) assay with 89Zr-DFO-H4H14639D on EBC-1 cells, 4 C, 45 min, gamma counting; x axis is total antibody dosed, not free
# Description: as §1, §2, §3
# [3] = molecular target: MET ('target' in the SPR assay of Example 2; construct not stated) (UniProt P08581 25-932, limits assumed); assay: SPR, Biacore 8k
# MET ('target' in the SPR assay of Example 2; construct not stated), sequence (P08581 25-932 limits assumed): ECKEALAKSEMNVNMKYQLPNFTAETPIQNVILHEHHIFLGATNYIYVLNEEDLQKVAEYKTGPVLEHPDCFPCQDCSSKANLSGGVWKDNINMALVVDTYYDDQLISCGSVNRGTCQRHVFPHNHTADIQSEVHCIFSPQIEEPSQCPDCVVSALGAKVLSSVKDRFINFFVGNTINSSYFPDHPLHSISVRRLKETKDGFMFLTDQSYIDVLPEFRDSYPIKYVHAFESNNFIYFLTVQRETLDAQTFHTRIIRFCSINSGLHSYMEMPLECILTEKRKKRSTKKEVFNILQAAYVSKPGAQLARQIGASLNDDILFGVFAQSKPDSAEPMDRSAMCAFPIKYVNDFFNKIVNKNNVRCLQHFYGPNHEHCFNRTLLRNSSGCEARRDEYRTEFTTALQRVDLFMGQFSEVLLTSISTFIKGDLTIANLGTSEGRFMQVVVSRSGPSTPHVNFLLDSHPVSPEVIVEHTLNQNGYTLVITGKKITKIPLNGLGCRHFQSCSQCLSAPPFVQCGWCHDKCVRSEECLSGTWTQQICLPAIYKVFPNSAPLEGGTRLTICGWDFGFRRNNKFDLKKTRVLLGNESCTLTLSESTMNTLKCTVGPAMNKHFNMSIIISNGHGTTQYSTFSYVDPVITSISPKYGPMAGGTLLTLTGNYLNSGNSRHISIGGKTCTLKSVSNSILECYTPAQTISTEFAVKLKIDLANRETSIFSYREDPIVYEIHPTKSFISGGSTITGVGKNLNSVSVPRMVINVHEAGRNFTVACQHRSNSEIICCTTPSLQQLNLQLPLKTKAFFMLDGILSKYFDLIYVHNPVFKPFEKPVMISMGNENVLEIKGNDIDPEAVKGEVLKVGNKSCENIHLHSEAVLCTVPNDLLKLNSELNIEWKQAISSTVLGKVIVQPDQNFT
# T1 sequence (P08581 25-1390): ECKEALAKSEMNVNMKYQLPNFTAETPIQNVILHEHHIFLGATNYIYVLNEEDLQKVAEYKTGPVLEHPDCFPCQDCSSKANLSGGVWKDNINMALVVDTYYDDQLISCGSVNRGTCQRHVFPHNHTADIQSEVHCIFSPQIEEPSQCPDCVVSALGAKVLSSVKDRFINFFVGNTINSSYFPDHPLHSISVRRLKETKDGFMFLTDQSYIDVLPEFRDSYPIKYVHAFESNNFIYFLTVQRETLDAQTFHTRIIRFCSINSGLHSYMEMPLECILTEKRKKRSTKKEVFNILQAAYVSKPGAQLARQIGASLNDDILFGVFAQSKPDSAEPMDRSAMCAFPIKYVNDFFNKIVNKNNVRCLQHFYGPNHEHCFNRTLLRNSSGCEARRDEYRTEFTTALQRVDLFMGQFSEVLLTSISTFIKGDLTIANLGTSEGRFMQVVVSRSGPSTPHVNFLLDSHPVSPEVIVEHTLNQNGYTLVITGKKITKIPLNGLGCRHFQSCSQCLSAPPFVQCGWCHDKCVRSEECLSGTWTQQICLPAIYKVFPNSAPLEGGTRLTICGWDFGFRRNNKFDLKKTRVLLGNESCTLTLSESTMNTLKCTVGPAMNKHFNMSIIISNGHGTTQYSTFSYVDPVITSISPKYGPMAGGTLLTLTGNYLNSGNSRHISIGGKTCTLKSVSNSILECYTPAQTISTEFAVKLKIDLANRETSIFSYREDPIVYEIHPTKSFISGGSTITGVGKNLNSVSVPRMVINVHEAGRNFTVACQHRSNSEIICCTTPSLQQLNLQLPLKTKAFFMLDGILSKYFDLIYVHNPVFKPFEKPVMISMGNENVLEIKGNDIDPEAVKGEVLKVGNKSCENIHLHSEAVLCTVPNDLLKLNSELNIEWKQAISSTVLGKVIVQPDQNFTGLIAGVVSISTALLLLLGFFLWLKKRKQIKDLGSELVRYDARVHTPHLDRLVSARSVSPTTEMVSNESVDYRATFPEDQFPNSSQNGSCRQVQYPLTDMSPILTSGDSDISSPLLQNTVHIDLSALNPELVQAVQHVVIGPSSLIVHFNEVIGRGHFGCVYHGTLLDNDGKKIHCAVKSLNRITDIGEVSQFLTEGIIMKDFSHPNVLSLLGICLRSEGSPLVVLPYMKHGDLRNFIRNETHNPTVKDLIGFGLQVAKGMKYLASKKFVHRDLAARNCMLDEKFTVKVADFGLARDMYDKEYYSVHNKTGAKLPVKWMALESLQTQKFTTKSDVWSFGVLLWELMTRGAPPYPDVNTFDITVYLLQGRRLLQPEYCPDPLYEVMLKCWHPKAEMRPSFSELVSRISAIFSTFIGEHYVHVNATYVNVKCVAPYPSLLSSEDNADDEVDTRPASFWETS
Binder,EC50 (read off the curve) [1] [nM],EC50 (read off the curve) [2] [nM],KD relative to the KD of the unconjugated bispecific antibody [3] [%]
B1,~2,~3,
B2,,,≤ 10

# From US20210077638A1 (Regeneron, published 2021)
